Laboratory results: PMC7677505

Key:
[1] = biological target: Endogenous BAFF (human (endogenous in serum, CSF, cord blood)); test: SEC; cord blood sera in Hepes pH 8.2, 30 mM NaCl, 10 ug/ml BSA; fractions lyophilized; ELISA at pH 5.5 and BAFFR:Fas reporter cells with antibody 2.81
[2] = biological target: Endogenous BAFF (human (endogenous in serum, CSF, cord blood)); test: SEC; endogenous BAFF affinity-purified on atacicept from CSF or from serum of a CVID patient, SEC at pH 8.2; ELISA with capture at pH 5.5 and BAFFR:Fas reporter cells
[3] = biological target: Endogenous BAFF (human (endogenous in serum, CSF, cord blood)); test: SEC; 8-fold concentrated pool of CSF of multiple sclerosis patients at pH 8.2, 30 mM NaCl; also after depletion on anti-APRIL mAb 104; ELISA with capture at pH 5.5 and BAFFR:Fas reporter cells
[4] = biological target: Endogenous BAFF (human (endogenous in serum, CSF, cord blood)); test: SEC; BAFFR-deficient human serum on Superdex S200 Increase in Hepes buffer pH 8.2; BAFF activity of fractions read on BCMA:Fas reporter cells; fractions 15-17 pooled, concentrated and run again
[5] = biological target: Endogenous BAFF (human (endogenous in serum, CSF, cord blood)); test: SEC; adult human sera (normal, CVID, BAFFR-deficient, BTK-deficient) in Hepes pH 8.2, 30 mM NaCl, 10 ug/ml BSA; fractions lyophilized; ELISA at pH 5.5 and BAFFR:Fas reporter cells with antibody 2.81

- stoichiometry N [1]: 3
- stoichiometry N [2]: 3
- stoichiometry N [3]: 3
- stoichiometry N [4]: 2.7
- stoichiometry N [5]: 3
Substance: Endogenous BAFF (ligand)
